Among the data in article PMC12915131 (2025) are koff values, retold here.

This assay deals with Chlamydia psittaci BioE (Chlamydia psittaci). The assay is described as follows: SPR. Background: SPR reads the build-up and loss of mass on a sensor chip optically.

Broadly, the koff is the first-order rate constant of dissociation. Read a high koff as a short-lived complex.

B1: stearoyl-ACP (E. coli acyl carrier protein carrying a C18 acyl group) (natural protein)
chain: STIEERVKKIIGEQLGVKQEEVTNNASFVEDLGADSLDTVELVMALEEEFDTEIPDEEAEKITTVQAAIDYINGHQA
modifications: holo-ACP carrying a stearoyl (C18) group, made with VhAasS
For the molecule B1, the koff is 0.00316 s⁻¹.
